In paper PMC11372557:

Experiments:
[1] = biological target: RbdA-DGC-PDE (RbdA 376-797), linked cyclase-phosphodiesterase double domain of RbdA (Pseudomonas aeruginosa strain PAO1); assay: SEC; apparent molecular weight on a calibrated size exclusion system; purified proteins in solution
[2] = biological target: RbdA-PDE (RbdA 549-797), phosphodiesterase domain of the regulator of biofilm dispersal RbdA (Pseudomonas aeruginosa strain PAO1); assay: as above

For “RbdA-DGC-PDE (RbdA 376-797), linked cyclase-phosphodiesterase double domain of RbdA (domain or fragment)”, the stoichiometry N [1] was 2.

Work on “RbdA-PDE (RbdA 549-797), phosphodiesterase domain of the regulator of biofilm dispersal RbdA (domain or fragment)” yielded a stoichiometry N [2] of 2.
